B1: WT1 peptide P117-125 … (peptide)
peptide: PSQASSGQA
B2: WT1 peptide P124-132 … (peptide)
peptide: QARMFPNAP
B3: WT1 peptide P127-135 … (peptide)
peptide: MFPNAPYLP
B4: WT1 peptide P129-137 … (peptide)
peptide: PNAPYLPSC
B5: WT1 peptide P131-139 … (peptide)
peptide: APYLPSCLE
B6: WT1 peptide P121-129 … (peptide)
peptide: SSGQARMFP

molecular target: Mouse MHC Class I (mouse B6 class I antigens, H-2^b: D^b or K^b) on RMA-S cells (mouse); test: RMA-S MHC stabilisation, flow cytometry with FITC anti-D^b or anti-K^b

Row | Molecule | Binding Affinity to Mouse MHC Class I (percent increase of D^b or K^b on RMA-S cells)
1 | WT1 peptide P122-130 … | 1%
2 | WT1 peptide P118-126 … | 2%
3 | WT1 peptide P130-138 … | 79%
4 | WT1 peptide P123-131 … | 1%
5 | WT1 peptide P125-133 … | 1%
6 | WT1 peptide p126-134 … | 79%
7 | WT1 peptide P119-127 … | 2%
8 | WT1 peptide P128-136 … | 1%
9 | WT1 peptide P120-128 … | 1%
10 | B1 | 2%
11 | B2 | 1%
12 | B3 | 2%
13 | B4 | 1%
14 | B5 | 1%
15 | B6 | 1%
